Numbering of substitutions follows the chain as printed.
T1: rat MAG-Fc fusion protein (R&D systems; 538-MG) (rat; human, UniProt P07722 20-516)
T1 construct: Bought reagent; not shown: human Fc
T1 sequence (looked up): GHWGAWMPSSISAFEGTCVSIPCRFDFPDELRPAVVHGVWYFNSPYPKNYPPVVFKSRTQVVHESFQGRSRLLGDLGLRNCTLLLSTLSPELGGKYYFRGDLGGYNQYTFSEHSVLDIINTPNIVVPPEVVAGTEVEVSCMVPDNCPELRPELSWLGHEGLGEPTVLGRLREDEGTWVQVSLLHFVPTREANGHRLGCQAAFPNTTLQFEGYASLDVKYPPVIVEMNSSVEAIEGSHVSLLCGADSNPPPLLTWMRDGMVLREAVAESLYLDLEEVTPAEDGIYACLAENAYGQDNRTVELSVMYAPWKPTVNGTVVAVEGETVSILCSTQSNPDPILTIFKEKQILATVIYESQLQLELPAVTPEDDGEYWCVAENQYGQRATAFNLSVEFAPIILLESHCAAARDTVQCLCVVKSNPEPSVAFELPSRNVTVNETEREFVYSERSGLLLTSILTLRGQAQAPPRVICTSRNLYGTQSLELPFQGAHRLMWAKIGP

B1: Humanised anti-MAG antibody BVh1/CVl1 (antibody, V domains shown)
VH: QVQLVQSGSELKKPGASVKVSCKASGYTFTNYGMNWVRQAPGQGLEWMGWINTYTGEPTYADDFTGRFVFSLDTSVSTAYLQISSLKAEDTAVYYCARNPINYYGINYEGYVMDYWGQGTLVTVSS
VL: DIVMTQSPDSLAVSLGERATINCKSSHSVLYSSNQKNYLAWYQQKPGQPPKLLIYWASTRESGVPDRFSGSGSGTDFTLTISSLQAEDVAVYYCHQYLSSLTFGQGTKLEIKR
notes: also called BVh1/CVI1
B2: Humanised anti-MAG antibody BVh3/CVl3 (antibody, IgG1, V domains shown)
VH: B1 VH with V93T, Y95F
VL: DIVMTQSPDSLAVSLGERATINCKSSHSVLYSSNQKNYLAWYQQKPGQPPKLLIYWASTRESGVPDRFSGSGSGTDFTLTISSLHTEDVAVYYCHQYLSSLTFGQGTKLEIKR
notes: also called BVh3/CVI3

Legend:
[1] = target: T1, rat MAG-Fc fusion protein (R&D systems; …); assay: direct binding ELISA on coated rat MAG-Fc (FIG. 6)
Description: (§1) 96-well Nunc Maxisorp plates were coated overnight at 4° C. with rat MAG-Fc fusion protein (2.5 μg/ml; R&D Systems; Cat.No. 538-MG) in PBS. Plates were washed twice with PBS containing Tween20 (0.1% v/v; PBST) and blocked with PBS containing BSA (1% w/v) for 1 h at room temperature (RT). Purified humanised antibody was adjusted to a starting concentration of 5 μg/ml in blocking buffer and then serial diluted. Antibody samples were incubated 1 h at RT and plates then washed 3× with PBST. Secondary antibody (Goat anti-human light chain specific-peroxidase conjugate; Sigma A-7164) was added diluted 1/5000 in blocking buffer and incubated for 1 h at RT. Wells were washed three times as above and binding detected by adding substrate (OPD tablets dissolved according to instructions; Sigma P-9187). Colour development was monitored and the reaction stopped using 3M H₂SO₄. Colour development was read at 490 nm.

[2] = target: T1, rat MAG-Fc fusion protein (R&D systems; …); assay: direct binding ELISA on coated rat MAG-Fc, purified antibody
Description: as §1

Binder	binding result [1]	binding result [2]
B1	binds	
B2		binds

Source: patent US20070269427A1 (GlaxoSmithKline, published 2007)
